The values that follow come from patent publication US20250074980A1 (BRIGHAM AND WOMEN S HOSPITAL, published 2025).

The Kd is a measure of binding affinity in units of concentration. Lower therefore signals higher affinity. For orientation: koff means the rate constant with which the complex falls apart. A higher koff goes with a short-lived complex. In general, kon refers to the second-order rate constant of association. A lower kon goes with slower complex formation.

The target of assay [1] is T1, GST-CEACAM1 (human, UniProt P13688 35-141, limits assumed).
T1 construct: also called human CEACAM1-GST protein
T1 sequence: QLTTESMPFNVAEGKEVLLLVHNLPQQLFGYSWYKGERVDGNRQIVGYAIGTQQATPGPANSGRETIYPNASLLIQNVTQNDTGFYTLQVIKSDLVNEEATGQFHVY
In words: competition ELISA vs parental murine antibody, experiment 2. For orientation: ELISA stands for enzyme-linked immunosorbent assay.

In assay [2] the target is T1, GST-CEACAM1. As to the kind of experiment: competition ELISA vs parental murine antibody, experiment 1.
The target in the next assay is T2, His-tagged CEACAM1 (human, UniProt P13688 35-428).
T2 construct: 45 kDa SPR analyte; also called CEACAM1-HIS; CEACAM1 analyte
T2 sequence: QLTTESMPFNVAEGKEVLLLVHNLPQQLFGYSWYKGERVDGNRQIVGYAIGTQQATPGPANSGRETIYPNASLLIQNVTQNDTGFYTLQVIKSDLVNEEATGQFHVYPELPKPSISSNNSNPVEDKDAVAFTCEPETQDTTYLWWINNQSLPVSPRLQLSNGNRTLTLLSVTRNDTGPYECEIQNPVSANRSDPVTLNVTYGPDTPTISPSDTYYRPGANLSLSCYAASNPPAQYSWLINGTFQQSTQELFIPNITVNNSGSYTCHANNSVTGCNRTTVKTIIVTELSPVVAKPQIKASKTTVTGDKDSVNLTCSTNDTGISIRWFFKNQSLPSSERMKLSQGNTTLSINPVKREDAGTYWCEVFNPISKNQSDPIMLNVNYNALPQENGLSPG
In words: SPR multi-cycle. A digest of the protocol: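 Surface plasmon resonance sensorgrams on a Biacore T200 provided Kon, koff, Kd and relative KD. Antibody at 1 μg/ml was captured to ~75 RU on a Series S Protein A chip, then His-tagged CEACAM1 was injected at 80 μl/min in 2-fold steps from 200 to 3.125 nM or 100 to 1.5625 nM, with 50 or 150 seconds of association and 100 seconds of dissociation, at 25° C in HBS-P+ (pH 7.4).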

Assay [3] addresses T3, CEACAM1 on transfected HeLa cells (human, UniProt P13688 35-526).
T3 construct: also called HeLa-CEACAM1; HeLa C1
T3 sequence: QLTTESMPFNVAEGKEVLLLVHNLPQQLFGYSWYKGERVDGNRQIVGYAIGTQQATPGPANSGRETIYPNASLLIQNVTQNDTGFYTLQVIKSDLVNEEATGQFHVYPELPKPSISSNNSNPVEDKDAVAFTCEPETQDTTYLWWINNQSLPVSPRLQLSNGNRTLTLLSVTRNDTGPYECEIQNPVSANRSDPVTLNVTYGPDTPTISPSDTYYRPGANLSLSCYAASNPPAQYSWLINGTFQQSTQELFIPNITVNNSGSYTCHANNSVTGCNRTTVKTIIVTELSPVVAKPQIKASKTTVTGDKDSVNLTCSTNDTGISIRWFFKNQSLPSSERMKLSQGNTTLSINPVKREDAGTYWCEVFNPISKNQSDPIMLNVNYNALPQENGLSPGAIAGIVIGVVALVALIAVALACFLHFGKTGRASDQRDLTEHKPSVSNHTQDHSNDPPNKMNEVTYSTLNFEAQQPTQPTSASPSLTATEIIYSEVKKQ
As to the kind of experiment: flow cytometry, transfected HeLa.

The target in assay [4] is T4, CEACAM5 on transfected HeLa cells (human, UniProt P06731 35-685).
T4 construct: whole, on cells; also called HeLa-CEACAM5; HeLa C5
T4 sequence (looked up): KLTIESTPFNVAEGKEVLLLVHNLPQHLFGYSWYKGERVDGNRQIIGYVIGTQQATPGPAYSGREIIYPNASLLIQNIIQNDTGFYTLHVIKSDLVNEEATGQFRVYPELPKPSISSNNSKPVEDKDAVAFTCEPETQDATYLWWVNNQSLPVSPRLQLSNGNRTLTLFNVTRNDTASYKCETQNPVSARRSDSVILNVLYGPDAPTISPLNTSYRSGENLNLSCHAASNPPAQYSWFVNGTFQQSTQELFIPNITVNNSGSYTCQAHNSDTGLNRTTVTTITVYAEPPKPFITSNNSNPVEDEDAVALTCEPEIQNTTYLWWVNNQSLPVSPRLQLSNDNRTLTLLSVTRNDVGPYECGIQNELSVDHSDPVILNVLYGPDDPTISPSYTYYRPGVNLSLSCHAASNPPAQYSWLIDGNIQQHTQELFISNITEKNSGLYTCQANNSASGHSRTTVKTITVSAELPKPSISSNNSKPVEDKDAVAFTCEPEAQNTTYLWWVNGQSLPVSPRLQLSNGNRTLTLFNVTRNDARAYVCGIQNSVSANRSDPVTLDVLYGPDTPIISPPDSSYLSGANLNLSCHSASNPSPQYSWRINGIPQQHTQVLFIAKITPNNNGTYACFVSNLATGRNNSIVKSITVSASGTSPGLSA
As to the kind of experiment: flow cytometry, transfected HeLa. On the technique in general: A flow cytometer gives signals particle by particle.

Assay [5] addresses T5, CEACAM6 on transfected HeLa cells (human, UniProt P40199 35-320).
T5 construct: whole, on cells; also called HeLa-CEACAM6; HeLa C6
T5 sequence (looked up): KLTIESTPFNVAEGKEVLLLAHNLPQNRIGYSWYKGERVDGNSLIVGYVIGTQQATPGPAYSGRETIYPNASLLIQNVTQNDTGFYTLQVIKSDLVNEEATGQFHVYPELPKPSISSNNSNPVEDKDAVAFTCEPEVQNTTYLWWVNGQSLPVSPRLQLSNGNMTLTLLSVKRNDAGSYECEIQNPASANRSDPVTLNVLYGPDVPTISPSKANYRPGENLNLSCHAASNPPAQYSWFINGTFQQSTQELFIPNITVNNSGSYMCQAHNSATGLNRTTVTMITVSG
As to the kind of experiment: flow cytometry, transfected HeLa.

Assay [6] concerns the target T1, GST-CEACAM1. As to the kind of experiment: competition ELISA vs parental murine antibody. The method, then:
The binding of the purified antibodies to human CEACAM1 was assessed in a competition ELISA assay. Nunc Immuno MaxiSorp 96 well flat bottom microtitre plates were pre-coated with 1 μg/ml of GST-CEACAM1 in 1×PBS, overnight at 4° C. The following day the plates were blocked for 1 hour at room temperature (“RT”) with 2% BSA/PBS before washing 3× with PBST pH 7.4. A 3-fold dilution series of the chimeric antibody chimeric antibody VH0/Vκ0, an irrelevant IgG4 antibody, and the humanized CEACAM1 antibodies from 100 μg/ml to 0.07 or 0.002 μg/ml were pre-mixed with a constant concentration of parental murine antibody (0.45 μg/ml final concentration), added to the plate and incubated for 1 hour at room temperature. Following 3×PBST washes, the binding of the parental murine CEACAM1 antibody was detected with an anti-mouse-HRP and TMB substrate. The reaction was stopped with 3 M HCl, absorbance read at 450 nm on a Dynex Technologies MRX TC II plate reader and the binding curves plotted. The binding of the humanized CEACAM antibody variants to CEACAM1 was compared to the chimeric antibody (VHO/Vκ0), which was included on each plate.

B1: VH0/Vκ0 S29A (antibody, IgG4, V domains shown)
VH: EVQLVESGGDLVKPGGSLKLACAASGFIFSSHGMSWVRQTPDKRLEWVATISSGGTYTYYPDSVKGRFTISRDNDKNTLYLQMNSLKSEDTAMYYCARHDFDYDAAWFAYWGQGTLVTVSS
VL: QIVLTQSPALMSASPGVKVTMTCSANSAVSYMYWYRQKPRSSPKPWIYLTSNLASGVPARFSGSGSGTSYSLTISSMEAEDAATYYCQQWSSNPPTFGSGTKLEIK
notes: aglycosylated chimeric, IgG4 (S241P), kappa
As for B1, the relative IC50 with GST-CEACAM1 [1] turned out to be 0.72. The relative IC50 with GST-CEACAM1 [2] amounted to 0.96. Besides, in the assay with His-tagged CEACAM1, the affinity, expressed as Kd, was 110 nM; the koff was 0.0277 s⁻¹; the on-rate constant (kon) amounted to 251000 M⁻¹ s⁻¹; the “relative KD” value was determined as 1.05. In addition, the “relative amount of cells bound” value in assay [3] worked out at 77.9. For the same molecule, in assay [4], the “relative amount of cells bound” value was determined as 9.82. In addition, in assay [5], the “relative amount of cells bound” value came to 0. Also, in the assay with GST-CEACAM1 [6], the average relative IC50 is 0.84.
